Where two headings read alike, the source gives them in different places. Where no end group is shown, it is not given here.
What was measured:
[1] = Active agent/FDKP microparticle adsorption studies (loading curves, HPLC); format: physicochemical; conditions: for binding of GLP-1 onto the FDKP microparticle surface: 100 mM TMAO
Experimental: Aqueous samples at varying pH and at 20° C. (unless otherwise noted) were analyzed.
The association of active agent with diketopiperazine (DKP) particles in suspension was evaluated by conducting adsorption studies.
(§1) Unbound active agent in the supernatant was filtered off the suspension. […] The amount of active agent in both the supernatant and reconstituted fractions was quantitated by HPLC. A series of experiments were conducted in which conditions employed included use of additives such as salts, osmolytes, chaotropes and kosmotropes, and alcohols.
The concentration of the chaotrope or kosmotrope in the samples was held constant at 100 mM and the pH varied from 2.0 to 5.0. Chaotropes or kosmotropes were selected from the following: NaSCN, CsCl, Na2SO4, (CH3)3N—HCl, […], Na Citrate, and NaClO4. The control indicates no chaotrope or kosmotrope were added.
The concentration of the osmolyte (stabilizer) in the samples was held constant at 100 mM and the pH varied from about 2.0 to about 5.0. The osmolytes were selected from hexylene-glycol (Hex-Gly), trehalose, glycine, PEG, TMAO, mannitol and proline; the control indicates no osmolyte.
In assessing the effect of modifiers on the active agent that allows for adsorption to the microparticle surface by a hydrophobic mechanism, the effect of alcohols were examined. […] The effect of each alcohol was observed over a pH range of 2.0 to 5.0. The alcohols used were trifluoroethanol (TFE) and hexafluoroisopropanol (HFIP). Each alcohol was evaluated at varying concentrations which include 5%, 10%, 15%, or 20% v/v.
(§2) The amount of active agent detected in reconstituted microparticle-free control samples as a function of pH and NaCl concentration was assessed. The pH was controlled with a 20 mM potassium phosphate/20 mM potassium acetate mixture.

[2] = in the presence of NaSCN, NaClO4, Na2SO4, NaNO3 and Na citrate; cited from earlier work
[3] = Active agent detected in reconstituted microparticle-free control samples (precipitation, HPLC); format: physicochemical
Experimental: as §1
Similar observations were disclosed in U.S. Provisional Application Ser. No. 60/744,882.
The effect of TFE was less pronounced, and at the lower pHs tested was detrimental. […] The mass ratios in FIGS. 3C-D reflect both adsorbed and precipitated active agent although precipitation is an increasingly minor component as the pH decreased toward 3.0.
as §2

insulin [reference compound]
affinity of insulin for the FDKP microparticle surface vs control ([1]; 100 mM chaotropes and kosmotropes, pH 3.0, […] insulin, 5 mg/mL FDKP): improved the affinity | affinity of insulin for the FDKP microparticle surface vs control ([1]; 100 mM chaotropes and kosmotropes, pH 4): this effect was not observed | adsorption of insulin to the FDKP microparticle surface vs control ([1]; 100 mM chaotropes and kosmotropes, pH 5.0 (insulin precipitated)): interfered with the adsorption | affinity of insulin for the FDKP particle surface ([1]; 100 mM osmolytes (PEG, glycine, trehalose, mannitol, Hex-Gly), pH 3.0 to 5.0): significantly improved affinity | binding (adsorption) of insulin onto FDKP particles ([1]; 100-500 mM NaCl, pH about 2.5 to about 3.5): increased binding | adsorption of insulin to the FDKP particle ([1]; all NaCl concentrations tested, pH about 4.0 to about 5.0): reduction in the adsorption

glucagon-like peptide 1 [GLP-1]
GLP-1 peptide detected in reconstituted microparticle-free control samples [2]: 0.02 to 0.04 mg/mL | GLP-1 peptide detected in reconstituted microparticle-free control samples ([3]; 10% HFIP and TFE, pH 4.0): 0.13 to 0.19 mg/mL | GLP-1 peptide detected in reconstituted microparticle-free control samples ([3]; 10% HFIP or TFE, pH 2.0): no GLP-1 was detected | affinity for adsorption of GLP-1 onto FDKP particle surface ([1]; 100 mM PEG and proline, pH 2.0 to 4.0): improved the affinity | binding of GLP-1 onto the FDKP microparticle surface ([1]; pH 2.0): more effective than PEG or proline | binding of GLP-1 onto the FDKP microparticle surface ([1]; pH 3.0 and above): modestly detrimental | affinity of GLP-1 for the FDKP microparticles ([1]; 100 mM chaotropes and kosmotropes, pH 2.0-4.0, greater effect at lower pH): improved affinity | affinity of GLP-1 for the microparticle surface ([1]; HFIP and TFE at 5% and 10%, pH 2.0-5.0): improved affinity | binding of GLP-1 to FDKP particles ([1]; NaCl, pH 4.0 and above): reduction in binding | effect of TFE on GLP-1 affinity for the microparticle surface ([1]; TFE, lower pHs tested): detrimental | binding (adsorption) of GLP-1 to FDKP particles ([1]; all NaCl concentrations tested, pH about 2.0 to about 3.5): enhanced binding

parathyroid hormone [PTH]
binding of PTH to the FDKP particles ([1]; 250 to 1000 mM NaCl, pH about 2.0 to about 3.5): enhanced binding | binding of PTH to the microparticle ([1]; in the presence of salt, pH about 3.5 to about 5.0): decreased | affinity of PTH for the FDKP microparticle surface ([1]; strong chaotropes NaSCN and NaClO4, pH 4.0 to about 4.5): greater

ghrelin (GSSFLSPEHQRVQQRKESKKPPAKLQPR; ends and bridges not checked; UniProt Q9UBU3 24-51, looked up)
affinity of ghrelin for the microparticle surface vs control ([1]; 100 mM mannitol, PEG, glycine, Hex-Gly, trehalose, pH about 4.0 to 5.0): greater affinity | affinity of ghrelin for the microparticle surface (mass ratio of ghrelin to FDKP particles) ([1]; HFIP and TFE at 5%, 10%, 15%, 20% v/v, pH 2.0-4.0): greatly improved affinity
